# Source: paper doi:10.1101/2024.06.06.597810 (bioRxiv, 2024)
# T1: SARS-CoV-2 spike stem helix peptide (residues 1146-1159), displayed on yeast (SARS-CoV-2)
# T1 chain: DSFKEELDKYFKNH
# Biological target: T1, SARS-CoV-2 spike stem helix peptide …
# Assay: flow cytometry on cells
# Conditions: partners not purified
binder,measurement,value
"S2P6 VH E1Q/VL E105D in scFv format (scFv, V domains shown, not shown: HA, C-terminal, kept) VH: QVQLVQSGAEVKKPGASVKVSCKASGYTFTSQYMHWVRQAPGQGLEWIGIINPSGVHTSYAQKFQGRVTLTRDTSTSTLYMELSSLRSEDTAVYYCARGSPKGAFDYWGQGTLVTVSS VL: not shown",binding result,binds
